Measured values reported in article PMC6359379, “SLC35A5 Protein—A Golgi Complex Member with Putative Nucleotide Sugar Transport Activity” (International Journal of Molecular Sciences, 2019).

B1: CMP-sialic acid transporter (SLC35A1), mRFP fusion (natural protein, UniProt P78382 1-337, looked up)
chain: MAAPRDNVTLLFKLYCLAVMTLMAAVYTIALRYTRTSDKELYFSTTAVCITEVIKLLLSVGILAKETGSLGRFKASLRENVLGSPKELLKLSVPSLVYAVQNNMAFLALSNLDAAVYQVTYQLKIPCTALCTVLMLNRTLSKLQWVSVFMLCAGVTLVQWKPAQATKVVVEQNPLLGFGAIAIAVLCSGFAGVYFEKVLKSSDTSLWVRNIQMYLSGIIVTLAGVYLSDGAEIKEKGFFYGYTYYVWFVIFLASVGGLYTSVVVKYTDNIMKGFSAAAAIVLSTIASVMLFGLQITLTFALGTLLVCVSIYLYGLPRQDTTSIQQGETASKERVIGV
notes: SLC35A1, CMP-sialic acid transporter; expressed from a pTag-RFP-C-SLC35A construct; FRET acceptor; The legend writes 'mRFP/SLC35A proteins'; also called mRFP/SLC35A1; source: HEK293T, transiently transfected, in living cells
B2: UDP-galactose transporter (SLC35A2), Golgi splice variant, mRFP fusion (natural protein, UniProt P78381-2 1-393, looked up)
chain: MAAVGAGGSTAAPGPGAVSAGALEPGTASAAHRRLKYISLAVLVVQNASLILSIRYARTLPGDRFFATTAVVMAEVLKGLTCLLLLFAQKRGNVKHLVLFLHEAVLVQYVDTLKLAVPSLIYTLQNNLQYVAISNLPAATFQVTYQLKILTTALFSVLMLNRSLSRLQWASLLLLFTGVAIVQAQQAGGGGPRPLDQNPGAGLAAVVASCLSSGFAGVYFEKILKGSSGSVWLRNLQLGLFGTALGLVGLWWAEGTAVATRGFFFGYTPAVWGVVLNQAFGGLLVAVVVKYADNILKGFATSLSIVLSTVASIRLFGFHVDPLFALGAGLVIGAVYLYSLPRGAAKAIASASASASGPCVHQQPPGQPPPPQLSSHRGDLITEPFLPKSVLVK
notes: expressed from a pTag-RFP-C-SLC35A construct; FRET acceptor; also called first splice variant of SLC35A2; source: HEK293T, transiently transfected, in living cells
B3: UDP-galactose transporter (SLC35A2), ER splice variant, mRFP fusion (natural protein, UniProt P78381-1 1-396, looked up)
chain: MAAVGAGGSTAAPGPGAVSAGALEPGTASAAHRRLKYISLAVLVVQNASLILSIRYARTLPGDRFFATTAVVMAEVLKGLTCLLLLFAQKRGNVKHLVLFLHEAVLVQYVDTLKLAVPSLIYTLQNNLQYVAISNLPAATFQVTYQLKILTTALFSVLMLNRSLSRLQWASLLLLFTGVAIVQAQQAGGGGPRPLDQNPGAGLAAVVASCLSSGFAGVYFEKILKGSSGSVWLRNLQLGLFGTALGLVGLWWAEGTAVATRGFFFGYTPAVWGVVLNQAFGGLLVAVVVKYADNILKGFATSLSIVLSTVASIRLFGFHVDPLFALGAGLVIGAVYLYSLPRGAAKAIASASASASGPCVHQQPPGQPPPPQLSSHRGDLITEPFLPKLLTKVKGS
notes: SLC35A2, UDP-galactose transporter, the second splice variant, localised mainly to the ER (A2-ER); expressed from a pTag-RFP-C-SLC35A construct; FRET acceptor; also called second splice variant of SLC35A2; source: HEK293T, transiently transfected, in living cells
B4: UDP-N-acetylglucosamine transporter (SLC35A3), mRFP fusion (natural protein, UniProt Q9Y2D2 1-325, looked up)
chain: MFANLKYVSLGILVFQTTSLVLTMRYSRTLKEEGPRYLSSTAVVVAELLKIMACILLVYKDSKCSLRALNRVLHDEILNKPMETLKLAIPSGIYTLQNNLLYVALSNLDAATYQVTYQLKILTTALFSVSMLSKKLGVYQWLSLVILMTGVAFVQWPSDSQLDSKELSAGSQFVGLMAVLTACFSSGFAGVYFEKILKETKQSVWIRNIQLGFFGSIFGLMGVYIYDGELVSKNGFFQGYNRLTWIVVVLQALGGLVIAAVIKYADNILKGFATSLSIILSTLISYFWLQDFVPTSVFFLGAILVITATFLYGYDPKPAGNPTKA
notes: SLC35A3, UDP-N-acetylglucosamine transporter; expressed from a pTag-RFP-C-SLC35A construct; FRET acceptor; source: HEK293T, transiently transfected, in living cells
B5: SLC35A4, mRFP fusion (natural protein, UniProt Q96G79 1-324, looked up)
chain: MSVEDGGMPGLGRPRQARWTLMLLLSTAMYGAHAPLLALCHVDGRVPFRPSSAVLLTELTKLLLCAFSLLVGWQAWPQGPPPWRQAAPFALSALLYGANNNLVIYLQRYMDPSTYQVLSNLKIGSTAVLYCLCLRHRLSVRQGLALLLLMAAGACYAAGGLQVPGNTLPSPPPAAAASPMPLHITPLGLLLLILYCLISGLSSVYTELLMKRQRLPLALQNLFLYTFGVLLNLGLHAGGGSGPGLLEGFSGWAALVVLSQALNGLLMSAVMKHGSSITRLFVVSCSLVVNAVLSAVLLRLQLTAAFFLATLLIGLAMRLYYGSR
notes: SLC35A4, member of the SLC35A subfamily; expressed from a pTag-RFP-C-SLC35A construct; FRET acceptor; source: HEK293T, transiently transfected, in living cells
B6: Solute carrier family 35 member A5 (SLC35A5), eGFP fusion (natural protein, human, UniProt Q9BS91 1-424, looked up)
chain: MEKQCCSHPVICSLSTMYTFLLGAIFIALSSSRILLVKYSANEENKYDYLPTTVNVCSELVKLVFCVLVSFCVIKKDHQSRNLKYASWKEFSDFMKWSIPAFLYFLDNLIVFYVLSYLQPAMAVIFSNFSIITTALLFRIVLKRRLNWIQWASLLTLFLSIVALTAGTKTLQHNLAGRGFHHDAFFSPSNSCLLFRSECPRKDNCTAKEWTFPEAKWNTTARVFSHIRLGMGHVLIIVQCFISSMANIYNEKILKEGNQLTESIFIQNSKLYFFGILFNGLTLGLQRSNRDQIKNCGFFYGHSAFSVALIFVTAFQGLSVAFILKFLDNMFHVLMAQVTTVIITTVSVLVFDFRPSLEFFLEAPSVLLSIFIYNASKPQVPEYAPRQERIRDLSGNLWERSSGDGEELERLTKPKSDESDEDTF
notes: SLC35A5, putative nucleotide sugar transporter; expressed from the plasmid pTag-GFP2-C-A5; FRET donor in every pair; In the pair A5 + A5 the second copy carried mRFP (pTag-RFP-C-SLC35A construct) in place of eGFP; also called pTag-GFP2-C-A5; source: HEK293T, transiently transfected, in living cells

The binders below were run against B6 (assay: FRET or BRET; FLIM/FRET in living HEK293T cells transiently co-transfected, analysed 48 h after transfection in FluoroBrite DMEM; SLC35A5-eGFP as donor, mRFP-tagged SLC35A proteins as acceptors; eGFP lifetime of the donor alone 2.70 ns). Details: partners not purified.
With B1 the “eGFP fluorescence lifetime of the donor with the acceptor (donor alone 2.70 ns)” value (from here on “eGFP fluorescence lifetime of the donor”) was 2.29 ns. For B2, the “eGFP fluorescence lifetime of the donor” value was 2.24 ns. For B3, the “eGFP fluorescence lifetime of the donor” value was 2.31 ns. In the case of B4, the “eGFP fluorescence lifetime of the donor” value is reported as 2.35 ns. With B5 the “eGFP fluorescence lifetime of the donor” value was 2.39 ns.

Biological target: the molecule itself
Assay: as above
Details: not given
B6 was tested, and the “eGFP fluorescence lifetime of the donor” value was 2.51 ns.
